According to article PMC9287719 (2022):
Where a chain is given by its changes, count along the chain named. Read-outs that look alike come from different tables or passages of the source.

Key:
[1] = target: T1, Recombinant FcγRIIa (H131) with C-terminus Biotin (human, UniProt P12318 34-217, C-terminus Biotin)
T1 chain: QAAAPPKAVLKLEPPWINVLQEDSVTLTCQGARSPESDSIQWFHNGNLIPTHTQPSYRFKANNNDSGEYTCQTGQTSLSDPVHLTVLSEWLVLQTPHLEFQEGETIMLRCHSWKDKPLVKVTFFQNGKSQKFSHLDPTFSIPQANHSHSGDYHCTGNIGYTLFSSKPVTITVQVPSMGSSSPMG

[2] = target: T2, Recombinant FcγRIIb with C-terminus Biotin (human, UniProt P31994 43-217, C-terminus Biotin)
T2 chain: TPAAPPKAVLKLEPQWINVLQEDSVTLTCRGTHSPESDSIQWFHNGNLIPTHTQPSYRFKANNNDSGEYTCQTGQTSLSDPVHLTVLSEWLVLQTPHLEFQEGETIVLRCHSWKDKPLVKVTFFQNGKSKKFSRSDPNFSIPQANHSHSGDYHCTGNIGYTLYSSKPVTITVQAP

[3] = target: T3, Recombinant FcγRIIIa (V158) with C-terminus Biotin (human, UniProt P08637, C-terminus Biotin)
[4] = target: T4, Recombinant FcγRIIa (R131) with C-terminus Biotin (human, UniProt P12318, C-terminus Biotin)
T4 chain: T1 chain with H134R

[5] = target: Recombinant FcγRIIIa (F158) with C-terminus Biotin (human, UniProt P08637 17-208, C-terminus Biotin)
[6] = target: T5, Recombinant FcγRI with C-terminus Biotin (human, UniProt P12314 16-292, C-terminus Biotin)
T5 chain: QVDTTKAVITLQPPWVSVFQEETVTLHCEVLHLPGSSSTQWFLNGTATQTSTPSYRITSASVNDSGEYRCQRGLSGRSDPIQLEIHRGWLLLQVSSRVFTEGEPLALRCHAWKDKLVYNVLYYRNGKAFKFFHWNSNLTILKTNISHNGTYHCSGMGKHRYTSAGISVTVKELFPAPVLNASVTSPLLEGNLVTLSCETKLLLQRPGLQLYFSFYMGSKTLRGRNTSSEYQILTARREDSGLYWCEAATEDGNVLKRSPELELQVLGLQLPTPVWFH

[7] = target: T1, Recombinant FcγRIIa (H131) with …
[8] = target: T4, Recombinant FcγRIIa (R131) with …
[9] = target: T3, Recombinant FcγRIIIa (V158) with …; remark: listed apart in the source
[10] = target: T5, Recombinant FcγRI with C-terminus Biotin

T3 sequence (P08637 17-208 F176V): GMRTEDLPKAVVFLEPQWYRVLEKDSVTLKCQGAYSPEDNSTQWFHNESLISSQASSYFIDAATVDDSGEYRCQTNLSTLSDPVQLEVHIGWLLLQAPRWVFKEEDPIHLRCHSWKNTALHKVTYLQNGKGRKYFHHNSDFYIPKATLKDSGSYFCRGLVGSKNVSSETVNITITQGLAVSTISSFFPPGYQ
Chain of Recombinant FcγRIIIa (F158) with C-terminus Biotin (P08637 17-208): as the sequence (P08637 17-208 F176V) above, with V160F counted along it

B1: Infliximab (antibody)
chain 1: EVKLEESGGGLVQPGGSMKLSCVASGFIFSNHWMNWVRQSPEKGLEWVAEIRSKSINSATHYAESVKGRFTISRDDSKSAVYLQMTDLRTEDTGVYYCSRNYYGSTYDYWGQGTTLTVSS
chain 2: DILLTQSPAILSVSPGERVSFSCRASQFVGSSIHWYQQRTNGSPRLLIKYASESMSGIPSRFSGSGSGTDFTLSINTVESEDIADYYCQQSHSWPFTFGSGTNLEVK
IC50 [1]: 244 nM
IC50 [2]: 2900 nM
IC50 [3]: 15.5 nM
IC50 [4]: 394 nM
IC50 [5]: 101 nM
IC50 [6]: 0.06 nM

B2: Panitumumab (antibody)
chain 1: QVQLQESGPGLVKPSETLSLTCTVSGGSVSSGDYYWTWIRQSPGKGLEWIGHIYYSGNTNYNPSLKSRLTISIDTSKTQFSLKLSSVTAADTAIYYCVRDRVTGAFDIWGQGTMVTVSS
chain 2: DIQMTQSPSSLSASVGDRVTITCQASQDISNYLNWYQQKPGKAPKLLIYDASNLETGVPSRFSGSGSGTDFTFTISSLQPEDIATYFCQHFDHLPLAFGGGTKVEIK
IC50 [7]: 137 nM
IC50 [8]: 1570 nM

B3: Pembrolizumab (antibody)
chain 1: QVQLVQSGVEVKKPGASVKVSCKASGYTFTNYYMYWVRQAPGQGLEWMGGINPSNGGTNFNEKFKNRVTLTTDSSTTTAYMELKSLQFDDTAVYYCARRDYRFDMGFDYWGQGTTVTVSS
chain 2: EIVLTQSPATLSLSPGERATLSCRASKGVSTSGYSYLHWYQQKPGQAPRLLIYLASYLESGVPARFSGSGSGTDFTLTISSLEPEDFAVYYCQHSRDLPLTFGGGTKVEIK
IC50 [9]: 1960 nM
IC50 [10]: 0.44 nM
